Molecular target: T1, BS69 coiled-coil MYND domain (BS69_(CC-MYND), amino acids 480-602) (human, UniProt Q15326 480-602)
T1 chain: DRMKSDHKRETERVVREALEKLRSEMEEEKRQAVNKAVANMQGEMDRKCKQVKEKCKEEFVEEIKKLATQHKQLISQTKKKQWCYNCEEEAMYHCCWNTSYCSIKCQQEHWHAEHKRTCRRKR
Test: ITC

B1: type 1 EBNA2 polypeptide T1 EBNA2_(381-455) (domain or fragment)
chain: SMPELSPVLGLHQGQGAGDSPTPGPSNAAPVCRNSHTATPNVSPIHEPESHNSPEAPILFPDDWYPPSIDPADLD
B1 was tested. Which Kd did it give?
Its Kd is 730 nM.

From PMC6638984 (2019)
